Measured values as given in patent US20220315908A1, “NOVEL GARDNERELLA ENDOLYSINS AND USES THEREOF” (priority 2019, published 2022).

How the values were obtained:
[1] = test system: G. piotii strain Gv_17; experiment: Quantitative reduction in viable CFU assay in bacterial suspension; assay type: cell-based, Gardnerella piotii; conditions: 5 hours, pH 5.0, anaerobic, 10 ul endolysin (0.2 mg/ml where possible) + 90 ul 5e7 CFU/ml, average of triplicate
Description: (§1) The lysis activity on the four main species of Gardnerella of 91 constructs (natural and domain-swapped endolysins) was quantitatively assessed using the method described in Reference Example 2. Briefly, 90 ul 5e7 CFU/ml of the indicated strain were incubated for 5 hours at pH 5.0 under anaerobic conditions with 10 ul endolysin (concentration adjusted to 0.2 mg/ml where possible, see Table 4).
(§2) The results are shown in FIGS. 8A to 8D together with Tables 5A to 5C. In FIGS. 8A to 8D, the logarithmic Y axis depicts the count of surviving cells. The dotted line indicates the limit of detection (LOD) given by plating of 2 ul of the reaction mix (500 CFU/ml). Each combination of the natural 10 H-domains and the natural 9 B-regions was assessed, including the natural endolysins (H1B1, H2B2, H3B3, etc.), plus H6B6. […] The activity of each construct was measured on each of the 4 main Gardnerella species G. vaginalis sensu stricto, G. leopoldii, G. piotii, and G. swidsinkii. All conditions have been measured in triplicate. The survival after 5 hours incubation at pH 5.0 under anaerobic conditions with endolysins vs. buffer was measured by quantitative plating. The values indicate the log 10 of the ratio of surviving CFU for treated vs. untreated cells. The average of the triplicate measurements is used. In tables 5A and 5B, high negative log 10 values, e.g. −6.7, −5.5, −4.8 etc. are associated with high enzymatic activity, while log 10 values closer to zero or even positive log 10 values are associated with low or no enzymatic activity. […] Inversely, a reduction value of −3.7 means a 10^3.7-fold (=5012-fold) reduction of viable CFU in treated sample vs. untreated control.
(§3) Gardnerella cells were recovered from cryo stock by plating on Chocolate Agar plates (Beckton Dickinson) and incubating for 48 h at 37° C. under anaerobic conditions. For Lactobacilli, BD Schaedler/5% sheep blood agar plates were used instead. Colonies were scraped from the plate, resuspended in Hardy Broth or NYC-III-HS-5.0 at the pH as indicated, and the suspension adjusted to OD (610 or 620 nm as indicated) 0.1. It has to be noted that two Tecan Microplate readers, having respectively a 610 nm or 620 nm filter, have been used interchangeably in the experiments. Although it doesn't make any difference for the experiments, the exact wavelength used is specified in each example. If not stated otherwise, 90 μl cell suspension was mixed with 10 μl endolysin solution, for the different species/endolysin combinations, in 384-well plates. OD(610-620 nm as indicated) was measured at the beginning of the reaction and at the end, either as two measurement points or as a continuous kinetic in a Tecan F200 Microplate reader. The reactions were incubated for 5 hours (or otherwise the time indicated) at 37° C. under anaerobic, micro-aerophilic or aerobic conditions as indicated. Anaerobic conditions intend that oxygen was fully depleted from the container in which the bacteria are incubated (Sigma-Aldrich anaerobic jar or sealable lunch box) with an anaerobic sachet, and the lack of oxygen was confirmed with an anaerobic indicator inside the container. Where micro-aerophilic conditions are indicated, the candle-in-a-jar method was used (tea candle lit in an appropriate sealable container, which reduces oxygen levels until the flame dies out). Then each well was diluted in 5 steps (10^−1 to 10^−5) using 96-U-well bottom plates, and 2 μl of each dilution of each reaction mix are plated on BD Chocolate agar plates or BD Schaedler/5% sheep blood agar plates for Gardnerella and Lactobacilli, respectively, for detecting and quantifying surviving CFU. Detection plates were incubated at 37° C. for 48 hours under anaerobic conditions.

[2] = test system: G. swidsinskii strain Gv_23; experiment: as above; assay type: cell-based, Gardnerella swidsinskii; conditions: 5 hours, pH 5.0, anaerobic, 10 ul endolysin (0.2 mg/ml where possible) + 90 ul 5e7 CFU/ml, average of triplicate
Description: as §1, §2, §3

[3] = test system: four Gardnerella strains (Gv_9, Gv_11, Gv_17, Gv_23); experiment: CFU reduction averaged across the four Gardnerella strains, with activity ranks; assay type: cell-based; conditions: for average of the log 10 activities of each construct across the four Gardnerella strains: pH 5.0, 5 hours, anaerobic; for activity rank of all endolysins: rank 1-91, based on the data of Table 5B
Description: as §1, §2
as §3, with “out).” for “out). Then each well was diluted in 5 steps (10^−1 to 10^−5) using 96-U-well bottom plates, and 2 μl of each dilution of each reaction mix are plated on BD Chocolate agar plates or BD Schaedler/5% sheep blood agar plates for Gardnerella and Lactobacilli, respectively, for detecting and quantifying surviving CFU. Detection plates were incubated at 37° C. for 48 hours under anaerobic conditions.”

Molecule	log 10 of the ratio of surviving CFU for treated vs. untreated cells [1] [log 10]	log 10 of the ratio of surviving CFU for treated vs. untreated cells [2] [log 10]	average of the log 10 activities of each construct across the four Gardnerella strains [3] [log 10]	activity rank of all endolysins [3]
H5B5: natural Gardnerella prophage endolysin from strain JCP7276 (protein, EL5_strain_JCP7276, natural Gardnerella prophage endolysin from strain JCP7276) MSKKGIDVSEWQGDIDFNAVKASGVEFVIIRAGYGIGCKDKWFEQNYRKAKTAGLDVGAYWYSYANSSSEAAEEAQSCANMLSGKSFEYPVYFDLEEKSQLNRGRAFCDSLITGFCSKLEACGYYAGFYTSLSTANNLVSAHVRNRYALWIAQWNTHCSYQGSYGLWQYSSNGSVPGVAGRVDMDYAYKDYPSIIKNAGLNGCKNGGSDQAARTSSIDEVAREVINGAWGNGNERKQRLTQAGYDYTSVQNKVNKLLGVKACRKSVDELAREVIRGTWGNGNERKNRLTQAGYDYDTVQKRVNELL	−0.1	−0.1	0.1	87
H7B7: natural Gardnerella prophage endolysin from strain AMD (protein, EL7_strain_AMD, natural Gardnerella prophage endolysin from strain AMD) MSKKGIDVSEWQGDIDFNAVKASGVEFVIIRAGYGIGCKDKWFEQNYRKAKTAGLDVGAYWYSYANSASEAAEEAQSCANMLSGKSFEYPVYFDLEEKSQLNRGRAFCDSLITSFCSKLETYGYYAGFYTSLSTANNLVSSHVRNRYALWIAQWNTHCSYQGSYGLWQYSSSGSVPGVAGRVDMDYAYKDYPSIIKNAGLNGCKNGGSDQAARTSSIDEVAREVINGAWGNGNERKQRLTQAGYDYTSVQNKVNKLLGVKACRKSVDELAREVIRGTWGNGNERKNRLTQAGYDYDTVQKRVNELL	−1.2	−3.2	−2.0	40
H11B11: natural Gardnerella prophage endolysin from strain JCP8017A (protein, EL11_strain_JCP8017A, natural Gardnerella prophage endolysin from strain JCP8017A) MSKRGIDVSVWQGDIDFNAVKASGVEFVIIRAGYGIGHKDKWFEQNYRKAKTTGLDVGAYWYSYASSAGEAAEEAQSCVNILSGKSFEYPVYFDLEEKSQLNRGRDFCDSLITSFCNKLETYGYYAGFYTSLSVANNLVSSHVRDRYALWIAQWNTHCDYQGSYGLWQYSSSGSVDGIAGRVDMDYTYVDYPSVIKKAGLNGYKNGGSYTAPQTSSIDEVAREVINGDWGNGNERKNRLTSAGYDYTSVQNKVNELLGVKAYRKSVDELAREVIRGTWGNGSTRKQRLTQAGYDYDAVQKRVNELL	−1.0	−3.5	−1.5	57
H12B12: natural Gardnerella prophage endolysin from strain 3549624 (protein, EL12_strain_3549624_non-prophage) MSKKGIDVSVWQGDIDFNAVKASGVEFVIIRAGYGIGHKDKWFEENYRKAKTAGLDVGSYWYSYASSAGEVALEAQSCVNILSGKSFEYPVYFDLEEKSQLNRGRDFCDSLITSFCNKLEACGYYAGFYTSLSVANNLVSSHVRDRYALWIAQWNTHCSYQGSYGLWQYSSSGSVNGIAGRVDMDYAYVDYPSVIKNAGLNGYQNGGSYTAPQTSSIDEVAREVINGDWGNGIERKNRLTSAGYDYTSVQNKVNELLGVKAYRKSVDELAREVIRGTWGNGKTRKQRLTQAGYDYNAVQKRVNELL	−0.3	−1.9	−0.9	73
H10B10: natural Gardnerella prophage endolysin from strain G30-4 (protein, EL10_strain_G30-4) MSKRGIDVSVWQGDIDFNAVKASGVEFVIIRAGYGIGHKDKWFEENYRKAKTVGLDVGAYWYSYASSAGEASEEAQSCVNILSGKSFEYPVYFDLEEKSQLNRGRDFCDSLITSFCNKLEACGYYAGFYTSLSVANNLVSSHVRDRYALWIAQWNTHCSYQGSYGLWQYSSSGSVNGIAGRVDMDYAYVDYPSVIKNAGLNGYKNGGSYTAPQISSIDEVAREVINGDWGNGNERKQRLTSAGYDYASVQNKVNELLGVKAYRKSVDELAREVIRGTWGNGSTRKQRLTQAGYDYNAVQKRVNELL	−2.4	−5.5	−3.3	6
